The results in this text go back to patent US20250073311A1, “DOSAGE REGIME” (ZEALAND PHARMA A/S, priority 2021, published 2025).

B1: Compound 14 (peptide)
peptide: H-H[Aib]EGSFTSELATILDK([γGlu-C18 diacid])LAARDFIAWLIAHKITD-OH
SMILES: CC[C@H](C)[C@H](NC(=O)[C@H](CC(C)C)NC(=O)[C@H](Cc1c[nH]c2ccccc12)NC(=O)[C@H](C)NC(=O)[C@@H](NC(=O)[C@H](Cc1ccccc1)NC(=O)[C@H](CC(=O)O)NC(=O)[C@H](CCCNC(=N)N)NC(=O)[C@H](C)NC(=O)[C@H](C)NC(=O)[C@H](CC(C)C)NC(=O)[C@H](CCCCNC(=O)CC[C@H](NC(=O)CCCCCCCCCCCCCCCCC(=O)O)C(=O)O)NC(=O)[C@H](CC(=O)O)NC(=O)[C@H](CC(C)C)NC(=O)[C@@H](NC(=O)[C@@H](NC(=O)[C@H](C)NC(=O)[C@H](CC(C)C)NC(=O)[C@H](CCC(=O)O)NC(=O)[C@H](CO)NC(=O)[C@@H](NC(=O)[C@H](Cc1ccccc1)NC(=O)[C@H](CO)NC(=O)CNC(=O)[C@H](CCC(=O)O)NC(=O)C(C)(C)NC(=O)[C@@H](N)Cc1c[nH]cn1)[C@@H](C)O)[C@@H](C)O)[C@@H](C)CC)[C@@H](C)CC)C(=O)N[C@@H](C)C(=O)N[C@@H](Cc1c[nH]cn1)C(=O)N[C@@H](CCCCN)C(=O)N[C@H](C(=O)N[C@H](C(=O)N[C@@H](CC(=O)O)C(=O)O)[C@@H](C)O)[C@@H](C)CC
B2: Compound 12 (peptide)
peptide: H-H[Aib]EGTFTSELATILDK([γGlu-C18 diacid])LAARDFIAWLIEHKITD-OH
SMILES: CC[C@H](C)[C@H](NC(=O)[C@H](Cc1ccccc1)NC(=O)[C@H](CC(=O)O)NC(=O)[C@H](CCCNC(=N)N)NC(=O)[C@H](C)NC(=O)[C@H](C)NC(=O)[C@H](CC(C)C)NC(=O)[C@H](CCCCNC(=O)CC[C@H](NC(=O)CCCCCCCCCCCCCCCCC(=O)O)C(=O)O)NC(=O)[C@H](CC(=O)O)NC(=O)[C@H](CC(C)C)NC(=O)[C@@H](NC(=O)[C@@H](NC(=O)[C@H](C)NC(=O)[C@H](CC(C)C)NC(=O)[C@H](CCC(=O)O)NC(=O)[C@H](CO)NC(=O)[C@@H](NC(=O)[C@H](Cc1ccccc1)NC(=O)[C@@H](NC(=O)CNC(=O)[C@H](CCC(=O)O)NC(=O)C(C)(C)NC(=O)[C@@H](N)Cc1c[nH]cn1)[C@@H](C)O)[C@@H](C)O)[C@@H](C)O)[C@@H](C)CC)C(=O)N[C@@H](C)C(=O)N[C@@H](Cc1c[nH]c2ccccc12)C(=O)N[C@@H](CC(C)C)C(=O)N[C@H](C(=O)N[C@@H](CCC(=O)O)C(=O)N[C@@H](Cc1c[nH]cn1)C(=O)N[C@@H](CCCCN)C(=O)N[C@H](C(=O)N[C@H](C(=O)N[C@@H](CC(=O)O)C(=O)O)[C@@H](C)O)[C@@H](C)CC)[C@@H](C)CC
B3: Compound 15 (peptide)
peptide: H-H[Aib]EGTFTSELATILDK([γGlu-C18 diacid])LAARDFIAWLIAHKITD-OH
SMILES: CC[C@H](C)[C@H](NC(=O)[C@H](CC(C)C)NC(=O)[C@H](Cc1c[nH]c2ccccc12)NC(=O)[C@H](C)NC(=O)[C@@H](NC(=O)[C@H](Cc1ccccc1)NC(=O)[C@H](CC(=O)O)NC(=O)[C@H](CCCNC(=N)N)NC(=O)[C@H](C)NC(=O)[C@H](C)NC(=O)[C@H](CC(C)C)NC(=O)[C@H](CCCCNC(=O)CC[C@H](NC(=O)CCCCCCCCCCCCCCCCC(=O)O)C(=O)O)NC(=O)[C@H](CC(=O)O)NC(=O)[C@H](CC(C)C)NC(=O)[C@@H](NC(=O)[C@@H](NC(=O)[C@H](C)NC(=O)[C@H](CC(C)C)NC(=O)[C@H](CCC(=O)O)NC(=O)[C@H](CO)NC(=O)[C@@H](NC(=O)[C@H](Cc1ccccc1)NC(=O)[C@@H](NC(=O)CNC(=O)[C@H](CCC(=O)O)NC(=O)C(C)(C)NC(=O)[C@@H](N)Cc1c[nH]cn1)[C@@H](C)O)[C@@H](C)O)[C@@H](C)O)[C@@H](C)CC)[C@@H](C)CC)C(=O)N[C@@H](C)C(=O)N[C@@H](Cc1c[nH]cn1)C(=O)N[C@@H](CCCCN)C(=O)N[C@H](C(=O)N[C@H](C(=O)N[C@@H](CC(=O)O)C(=O)O)[C@@H](C)O)[C@@H](C)CC
B4: Compound 11 (peptide)
peptide: H-H[Aib]EGSFTSELATILDK([γGlu-C18 diacid])LAARDFIAWLIEHKITD-OH
SMILES: CC[C@H](C)[C@H](NC(=O)[C@H](Cc1ccccc1)NC(=O)[C@H](CC(=O)O)NC(=O)[C@H](CCCNC(=N)N)NC(=O)[C@H](C)NC(=O)[C@H](C)NC(=O)[C@H](CC(C)C)NC(=O)[C@H](CCCCNC(=O)CC[C@H](NC(=O)CCCCCCCCCCCCCCCCC(=O)O)C(=O)O)NC(=O)[C@H](CC(=O)O)NC(=O)[C@H](CC(C)C)NC(=O)[C@@H](NC(=O)[C@@H](NC(=O)[C@H](C)NC(=O)[C@H](CC(C)C)NC(=O)[C@H](CCC(=O)O)NC(=O)[C@H](CO)NC(=O)[C@@H](NC(=O)[C@H](Cc1ccccc1)NC(=O)[C@H](CO)NC(=O)CNC(=O)[C@H](CCC(=O)O)NC(=O)C(C)(C)NC(=O)[C@@H](N)Cc1c[nH]cn1)[C@@H](C)O)[C@@H](C)O)[C@@H](C)CC)C(=O)N[C@@H](C)C(=O)N[C@@H](Cc1c[nH]c2ccccc12)C(=O)N[C@@H](CC(C)C)C(=O)N[C@H](C(=O)N[C@@H](CCC(=O)O)C(=O)N[C@@H](Cc1c[nH]cn1)C(=O)N[C@@H](CCCCN)C(=O)N[C@H](C(=O)N[C@H](C(=O)N[C@@H](CC(=O)O)C(=O)O)[C@@H](C)O)[C@@H](C)CC)[C@@H](C)CC
B5: Compound 16 (peptide)
peptide: H-H[Aib]EGTFTSELATILDK([γGlu-C18 diacid])EAARLFIAWLIEHKITD-OH
SMILES: CC[C@H](C)[C@H](NC(=O)[C@H](Cc1ccccc1)NC(=O)[C@H](CC(C)C)NC(=O)[C@H](CCCNC(=N)N)NC(=O)[C@H](C)NC(=O)[C@H](C)NC(=O)[C@H](CCC(=O)O)NC(=O)[C@H](CCCCNC(=O)CC[C@H](NC(=O)CCCCCCCCCCCCCCCCC(=O)O)C(=O)O)NC(=O)[C@H](CC(=O)O)NC(=O)[C@H](CC(C)C)NC(=O)[C@@H](NC(=O)[C@@H](NC(=O)[C@H](C)NC(=O)[C@H](CC(C)C)NC(=O)[C@H](CCC(=O)O)NC(=O)[C@H](CO)NC(=O)[C@@H](NC(=O)[C@H](Cc1ccccc1)NC(=O)[C@@H](NC(=O)CNC(=O)[C@H](CCC(=O)O)NC(=O)C(C)(C)NC(=O)[C@@H](N)Cc1c[nH]cn1)[C@@H](C)O)[C@@H](C)O)[C@@H](C)O)[C@@H](C)CC)C(=O)N[C@@H](C)C(=O)N[C@@H](Cc1c[nH]c2ccccc12)C(=O)N[C@@H](CC(C)C)C(=O)N[C@H](C(=O)N[C@@H](CCC(=O)O)C(=O)N[C@@H](Cc1c[nH]cn1)C(=O)N[C@@H](CCCCN)C(=O)N[C@H](C(=O)N[C@H](C(=O)N[C@@H](CC(=O)O)C(=O)O)[C@@H](C)O)[C@@H](C)CC)[C@@H](C)CC
B6: Compound 13 (peptide)
peptide: H-H[Aib]EGTFSSELATILDK([γGlu-C18 diacid])LAARDFIAWLIAHKITD-OH
SMILES: CC[C@H](C)[C@H](NC(=O)[C@H](CC(C)C)NC(=O)[C@H](Cc1c[nH]c2ccccc12)NC(=O)[C@H](C)NC(=O)[C@@H](NC(=O)[C@H](Cc1ccccc1)NC(=O)[C@H](CC(=O)O)NC(=O)[C@H](CCCNC(=N)N)NC(=O)[C@H](C)NC(=O)[C@H](C)NC(=O)[C@H](CC(C)C)NC(=O)[C@H](CCCCNC(=O)CC[C@H](NC(=O)CCCCCCCCCCCCCCCCC(=O)O)C(=O)O)NC(=O)[C@H](CC(=O)O)NC(=O)[C@H](CC(C)C)NC(=O)[C@@H](NC(=O)[C@@H](NC(=O)[C@H](C)NC(=O)[C@H](CC(C)C)NC(=O)[C@H](CCC(=O)O)NC(=O)[C@H](CO)NC(=O)[C@H](CO)NC(=O)[C@H](Cc1ccccc1)NC(=O)[C@@H](NC(=O)CNC(=O)[C@H](CCC(=O)O)NC(=O)C(C)(C)NC(=O)[C@@H](N)Cc1c[nH]cn1)[C@@H](C)O)[C@@H](C)O)[C@@H](C)CC)[C@@H](C)CC)C(=O)N[C@@H](C)C(=O)N[C@@H](Cc1c[nH]cn1)C(=O)N[C@@H](CCCCN)C(=O)N[C@H](C(=O)N[C@H](C(=O)N[C@@H](CC(=O)O)C(=O)O)[C@@H](C)O)[C@@H](C)CC

Numbered stars: 1 amine (or outer) side, 2 acyl side, 3 side chain; on linkers, the order of the positions; unused ones are H or OH. Square brackets hold non-standard residues; d marks the D form. Side chains are listed from the residue outwards. * marks the point of attachment. C18 diacid = O=C(O)CCCCCCCCCCCCCCCCC(=O)*; γGlu = O=C(O)[C@H](CCC(=O)[*:2])N[*:1]; Aib = CC(C)(N)C(=O)O

The first experiment deals with T1, human GLP-2 receptor (hGLP2-R) (human, UniProt O95838).
T1 sequence: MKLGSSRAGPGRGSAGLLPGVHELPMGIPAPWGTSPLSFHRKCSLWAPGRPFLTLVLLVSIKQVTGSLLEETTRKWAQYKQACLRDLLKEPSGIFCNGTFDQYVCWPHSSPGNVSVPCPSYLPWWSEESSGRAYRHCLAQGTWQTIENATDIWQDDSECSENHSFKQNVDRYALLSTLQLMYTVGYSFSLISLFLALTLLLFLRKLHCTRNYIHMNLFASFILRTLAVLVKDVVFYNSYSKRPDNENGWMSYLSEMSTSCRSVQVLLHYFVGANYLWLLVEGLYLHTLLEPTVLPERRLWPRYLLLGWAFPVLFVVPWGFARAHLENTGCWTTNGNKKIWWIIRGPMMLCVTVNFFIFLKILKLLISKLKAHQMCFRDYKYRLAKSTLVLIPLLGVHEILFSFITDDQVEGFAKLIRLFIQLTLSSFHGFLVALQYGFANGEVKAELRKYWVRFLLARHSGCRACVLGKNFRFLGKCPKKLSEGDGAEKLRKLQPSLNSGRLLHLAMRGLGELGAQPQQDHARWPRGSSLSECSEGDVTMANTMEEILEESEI
Nature of the experiment: cell-based or functional assay.
For the molecule B1, the “EC50 GLP-2 (nM), cAMP AlphaScreen” value was found to be 0.086 nM.
Same read-out and setting: the figure for B2 is 0.11 nM; for B3 it is 0.16 nM.
In the case of B4, the “EC50 GLP-2 (nM), cAMP AlphaScreen” value turned out to be 0.085 nM.
The same measure, in the same setting: the figure for B5 is 0.68 nM.
On the same count and under the same terms, with B6 the figure was 0.099 nM.

The target in a further experiment is human glucagon-like peptide 1 receptor (GLP-1R) (human, UniProt P43220). Nature of the experiment: cell-based or functional assay.
For the molecule B1, the “EC50 GLP-1 (nM), cAMP AlphaScreen” value came to 0.57 nM.
The same measure, in the same setting: with B2 the figure was 0.14 nM.
Same read-out and setting: with B3 the figure was 0.25 nM; with B4, 0.32 nM; with B5, 0.073 nM.
For the molecule B6, the “EC50 GLP-1 (nM), cAMP AlphaScreen” value was 2.2 nM.
